This is an account of results in paper PMC8172134.

In the assay the target is SARS-CoV spike prefusion stabilized ectodomain trimer (SARS-CoV) (UniProt P59594). The experiment in a line: cryo-EM structure.

Substance 47D11 Fab fragment came in with a stoichiometry N (Fab per spike trimer) of 3.
